Drawing on patent US20230296605A1, this text covers OD450, electric signal, fold over the negative control and lowest concentration of PRRSV recognized for one molecule.

Assay [1] addresses PRRSV viral lysate (Porcine Reproductive and Respiratory Syndrome Virus). As to the kind of experiment: ELISA Test 1, coated lysate, antibody 1:4000, Group 1; PBS control 0.073/0.072. A general note: ELISA stands for enzyme-linked immunosorbent assay.
Assay [2] has the same target. As to the kind of experiment: […], antibody immobilized; […].
Assay [3] has the same target. Nature of the assay: ELISA Test 2, coated lysate, antibody 1:4000; PBS control 0.118/0.121.
For assay [4], the target named is lysate of porcine coronavirus. As to the kind of experiment: ELISA Test 2, coated lysate, antibody 1:4000; PBS control 0.140/0.145.
In assay [5] the target is lysate of porcine pseudorabies virus. Nature of the assay: ELISA Test 1, coated lysate, antibody 1:4000, Group 1; PBS control 0.080/0.089.
For assay [6] the target is unchanged. Nature of the assay: ELISA Test 1, coated lysate, antibody 1:4000, Group 2; PBS control 0.054/0.052.
In assay [7] the target is lysate of porcine circovirus type 2. Nature of the assay: ELISA Test 2, coated lysate, antibody 1:4000; PBS control 0.162/0.153.
Assay [8] deals with PRRSV viral lysate (Porcine Reproductive and Respiratory Syndrome Virus). Nature of the assay: ELISA, coated lysate, 1 ug antibody.
Assay [9] shares this target. As to the kind of experiment: ELISA Test 1, coated lysate, antibody 1:4000, Group 2; PBS control 0.058/0.060.

B1: anti-PRRSV antibody 477 (antibody, V domains shown)
VH: QVHVKQSGAELAKPGASVKMSCKASGYTFTNYWMHWVKQRPGQGLEWIGYINPSTGYTEYNQKFKDKATLTADKSSSTASMQLSSLTSEDSAVYYCGRSTAYGKYGEAWFAYWGQGTLVTVSA
VL: DIVMTQSPASLAVSLGQRATISCRTSESVDSFGNSFMHWYQQKPGQPPKLLIYLASNLESGVPARFSGSGSRTDFTLTIDPVEADDAATYYCQQNNEDPYTFGGGTKLEIKR
For B1, the OD450 in [1] is 0.151 OD450; in assay [3], 0.66 OD450; in [4], 0.375 OD450; in [5], 0.095 OD450; in [6], 0.08 OD450; in assay [7] it was 0.303 OD450. Further, in assay [9], the OD450 came to 0.129 OD450. Also, in [2], the electric signal, fold over the negative control turned out to be 3 times. This molecule also yielded a lowest concentration of PRRSV recognized in assay [8] of under 0.78 ng.
